The values below come from the supplement of paper PMC9170038.

For this data set, the system named is MS2 coat protein. Nature of the data set: apparent KD of MS2 coat protein; designed switch direction (-1 OFF switch, 1 ON switch): -1; higher = weaker reporter binding. The procedure, abridged: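 Designed RNA switches sharing common flanks were transcribed on Illumina chips by stalled E. coli RNA polymerase. They were titrated with SNAP-549-labelled MS2 coat protein, from 0.7 or 1.5 nM doubling to 3 µM, in Tris-HCl pH 7.5 buffer with KCl, MgCl2, BSA, DTT, tRNA and Tween-20. Titrations ran without input, with 200 uM small-molecule ligand, or with an oligonucleotide input. The apparent KD of each design is the median over its clusters, after curve-fitting of normalised cluster fluorescence.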

Setting [1] is: Eterna round: R95, input ligand: FMN 200 uM.
Where [2] appears, read: Eterna round: R95, input ligand: microRNA oligo, concentration not stated.
Where [3] appears, read: Eterna round: R95, input ligand: none.
The mark [4] stands for this setting: input ligand: microRNA oligo, concentration not stated.

Take “GGCAAUAACGAGGAUAUCGUAUGGGAAACCAUACGAGAAGGUGUAACAUGAGGAUCACCCAUGUUCCUCAAGCC [Mat - Exclusion 6 - Eli Mod - D66] (puzzle: Exclusion 6)”: the “apparent KD of MS2 coat protein” value stood at 35.3 nM under setting [1], 34.6 nM under setting [2] and 40 nM under setting [3].

Consider “GGCACACAUGUAGGAUAUCUGCACGAUUAGUGCAGAGAAGGACAUGAGGAUCACCCAUGUAAUUAAGAUCAAUUAUUAAGUGCC [ENG1/3-A1] (Eterna round: R96, puzzle: Exclusion NG 1)”, for which the “apparent KD of MS2 coat protein” value worked out at 468 nM (input ligand: FMN 200 uM), 50 nM under setting [4] and 54.6 nM (input ligand: none).

Take “GGCAUGCAAGGAUAUACUUGAAGUGAUGUUCGAUAAAGUCUACUUGAGGAUCACCCAAGUAGAAGGUGCAUGCC [Exclusion 2 (Mod5.1 JL EX2 4.74 Vienna UCT mod of Mamaed)] (Eterna round: R97, puzzle: Exclusion 2)”: the “apparent KD of MS2 coat protein” value is 108 nM (input ligand: FMN 200 uM) and 198 nM (input ligand: none).

As for “GGCAUGUAAGGAUAUGCCACUGAGUGCUUUGCGCUCAGAAAGCAGAAGGUACAUGAGGAUCACCCAUGUGAUAA [jl-ex4-4.53 ViennaUCT mod] (Eterna round: R97, puzzle: Exclusion 4)”, the “apparent KD of MS2 coat protein” value reads like this: (input ligand: FMN 200 uM) 945 nM; (input ligand: none) 650 nM.

Turning to “GGCCCUAAGGUCAGAUUCACAAGCUUUUUGCUCGUUUUAACAUGAGGAUCACCCAUGUCUAGUGGAUCUGAUCCUCU [Sensor v3, turn-off variant 2 (MOD of Indiso v.1)] (puzzle: Sensor v3, turn-off variant 2)”, the “apparent KD of MS2 coat protein” value reads like this: under setting [1], 27.5 nM; under setting [2], 14.9 nM; under setting [3], 31.2 nM.

Take “GGCCUUCCGCGAGCUUUUUACAUGAGGAUCACCCAUGUGGUUUUUAGUCUUAUGCCCGGGCCCGUGUGGGCCCGGGC [-33.7, -54.7, A 12%] (Eterna round: R97, puzzle: Sensor, turn-off variant 1)”: the “apparent KD of MS2 coat protein” value (input ligand: FMN 200 uM) came to 27.6 nM and the “apparent KD of MS2 coat protein” value (input ligand: none) turned out to be 29.2 nM.

Regarding “GGCGAGCAAGGAUAUGCAGGGUAUCCGACUCGCAGCGGGCGACAUGAGGAUCACCCAUGUAGAAGGUGCACGCG [EX2 A.6] (Eterna round: R97, puzzle: Exclusion 2)”, the “apparent KD of MS2 coat protein” value reads like this: (input ligand: FMN 200 uM) 23.9 nM; (input ligand: none) 31 nM.

As for “GGCUAGUCAGGAUAUACGAACAUGUCAAAAGACGUGAAGGGACAUGAGGAUCACCCAUGUAGAAGGGACUAGCG [salish99_ex2_r3_002] (puzzle: Exclusion 2)”, the “apparent KD of MS2 coat protein” value under setting [2] came out at 25 nM.

For the sequence “GGCUGCAAUGUAGGAUAUCUGCACGUGUAGUGCAGAGAAGGACAUGAGGAUCACCCAUGUAUAGUAGCUUCGGCUACAGCAGCC [ENG1-D3] (Eterna round: R96, puzzle: Exclusion NG 1)”, the “apparent KD of MS2 coat protein” value reads like this: (input ligand: FMN 200 uM) 24.6 nM; under setting [4], 12.7 nM; (input ligand: none) 18.2 nM.

Take “GGGAAAGAGGUAAGGAUAUCCUCCUCGAAAGAGGAGGAGAAGGUACAUGAGGAUCACCCAUGUAAGAAGAAGAG [AK-MS2ROC-r4-Bmoexclusion4-13] (Eterna round: R97, puzzle: Brourd's mod of Exclusion 4)”: the “apparent KD of MS2 coat protein” value runs as follows: (input ligand: FMN 200 uM) 25 nM; (input ligand: none) 18.6 nM.

“GGGAAGAACCAACAAGUAUACAUGAGGAUCACCCAUGUUCCUAGUGGGUAUGUAAAGAUUAAGAGAGCUCGUCUUAU [AK-miRNA-r3-10] (Eterna round: R97, puzzle: Sensor, turn-off variant 1)”: the “apparent KD of MS2 coat protein” value (input ligand: FMN 200 uM) was 66.9 nM and the “apparent KD of MS2 coat protein” value (input ligand: none) worked out at 75.3 nM.

On to “GGGCCCGGAGGAUAUACAAUGGGCCCGGGAAACCGGGUUUUACAUGAGGAUCACCCAUGUAGAAGGCCGGGCCC [-42.8, -38.99 kcal A 24%, 5a,0] (Eterna round: R97, puzzle: Exclusion 2)”, for which the “apparent KD of MS2 coat protein” value was 15.6 nM (input ligand: FMN 200 uM) and 14.6 nM (input ligand: none).

Turning to “GGGCCCGGAGGAUAUACAUGAGGAUCACCCAUGUAUUUGGGCCCUAUUGGGCCCGGGUGUAGAAGGCCGGGCCC [-42.1, -39.5 kcal, A 19%, 5abis,0] (Eterna round: R97, puzzle: Exclusion 3)”, the “apparent KD of MS2 coat protein” value (input ligand: FMN 200 uM) was found to be 17.3 nM and the “apparent KD of MS2 coat protein” value (input ligand: none) is 14.6 nM.

With “GGGCCGGCCGGAGGAUAUGCGGCUUGGUUGGUCGGUGGGCCGGCCGGGACAUGAGGAUCACCCAUGUAGAAGGCUGGUUGGUUC [less GC, MS2 in another position, A 14%] (Eterna round: R96, puzzle: Exclusion NG 2)”, the “apparent KD of MS2 coat protein” value was found to be 58.2 nM (input ligand: FMN 200 uM), 42.8 nM under setting [4] and 60.7 nM (input ligand: none).

For “GGGCGGGCAGGAUAUACAUGAGGAUCACCCAUGUAUGUCCAAAGACAUACAUUCUUAUGUAGAAGGGCCCGCCC [Ex 4] (Eterna round: R97, puzzle: Exclusion 3)”, the “apparent KD of MS2 coat protein” value is, setting by setting: (input ligand: FMN 200 uM) 142 nM; (input ligand: none) 26.6 nM.

Take “GGGCUGCGACGCAGCCCAACAAAACAUGAGGAUCACCCAUGUCAGGAUAUACCGAUGCAGCAUCUGUAGAAGGGACAGAUCCAA [Tiraonin] (Eterna round: R96, puzzle: Exclusion NG 3)”: under setting [4], the “apparent KD of MS2 coat protein” value came to 61.9 nM.

As to “GGGCUUCAAGUGAGGAUAUCUACGCAGUUGAAGCGAGAGAAGGCACAUGAGGAUCACCCAUGUAUAGAAGAAGA [Rausmausis] (puzzle: Brourd's mod of Exclusion 4)”, the “apparent KD of MS2 coat protein” value is 116 nM under setting [1], 26.5 nM under setting [2] and 29.1 nM under setting [3].

In the case of “GGGUGUCCAGUGAGGAUAUCCAACGCUAAGGCGCAGGAGAAGGCACAUGAGGAUCACCCAUGUAGCUGAAGAAA [Onerbegeso] (puzzle: Brourd's mod of Exclusion 4)”, the “apparent KD of MS2 coat protein” value amounted to 49.9 nM under setting [1], 14.1 nM under setting [2] and 20 nM under setting [3].

Take “GGUACUAACACGAAAGUGUUAGUACAAUAAGCUAGUGGAACAUGAGGAUCACCCAUGUCCUCAUUAGCUCGUCUUAG [Mat - Sensor v3 - Turn-off var 2 - D37] (puzzle: Sensor v3, turn-off variant 2)”: the “apparent KD of MS2 coat protein” value runs as follows: under setting [1], 14.7 nM; under setting [2], 37.6 nM; under setting [3], 12.7 nM.

“GGUACUAACACGAAAGUGUUAGUACUAUAAGCUUGUGUUACAUGAGGAUCACCCAUGUCCUCAUAGGCUCGUCUUGU [JL-sv3-2.17 mat747 mod] (puzzle: Sensor v3, turn-off variant 2)”: the “apparent KD of MS2 coat protein” value was 105 nM under setting [1], 51 nM under setting [2] and 115 nM under setting [3].

With “GGUACUAACACGAGAGUGUUAGUACUAUAAGCUUGUGUUACAUGAGGAUCACCCAUGUCCUCAUAGGCUCGUCUUAU [Mat - Sensor v3 - Turn-off var 2 - D80] (puzzle: Sensor v3, turn-off variant 2)”, the “apparent KD of MS2 coat protein” value by setting is: under setting [1], 209 nM; under setting [2], 25.8 nM; under setting [3], 231 nM.

As for “GGUACUAACACGAUAGUGUUAGUACAAUAAGCUUGUGUUACAUGAGGAUCACCCAUGUCCUCAUAAGCUCGUCUUAU [Mat - Sensor v3 - Turn-off var 2 - D56] (puzzle: Sensor v3, turn-off variant 2)”, the “apparent KD of MS2 coat protein” value runs as follows: under setting [1], 117 nM; under setting [2], 102 nM; under setting [3], 108 nM.

As for “GGUACUCAAAGAGUACCAAUACGAACAUGAGGAUCACCCAUGUAGGAUAUGCUACUCAAAGAGUAGCAGAAGGACGUGUACCUU [Far Half Aptamer v1] (Eterna round: R96, puzzle: Exclusion NG 3)”, the “apparent KD of MS2 coat protein” value under setting [4] worked out at 18.5 nM.

As for “GGUAGAGUGGCAGGAUAUCCGUCUGUUUCAGUCGGAGAAGGGCCACAGUCACUGGGUCCAAAUAUGGGUGACCAUGUAUCUACC [pwkr exNG1 F6.4] (Eterna round: R96, puzzle: Exclusion NG 1)”, the “apparent KD of MS2 coat protein” value is, setting by setting: (input ligand: FMN 200 uM) 22 nM; under setting [4], 28.4 nM; (input ligand: none) 34.8 nM.

As for “GGUCAGACGGUAGGAUAUCUAUAUCGAGUGACCCUUUCAUAACAUGAGGAUCACCCAUGUCGGUGGGAGAAGGGCCGUACGGCG [salish99_ExNG02_R04_007] (Eterna round: R96, puzzle: Exclusion NG 2)”, the “apparent KD of MS2 coat protein” value reads like this: (input ligand: FMN 200 uM) 62.5 nM; under setting [4], 31.6 nM; (input ligand: none) 42.2 nM.

As for “GGUCAGAUGGUAGGAUAUCCAUAUCGAGUGACCUUUUCAUAACAUGAGGAUCACCCAUGUCGGUGGGAGAAGGGCCGUACGGCG [salish99_ExNG02_R04_017] (Eterna round: R96, puzzle: Exclusion NG 2)”, the “apparent KD of MS2 coat protein” value reads like this: (input ligand: FMN 200 uM) 120 nM; under setting [4], 79 nM; (input ligand: none) 112 nM.

For the sequence “GGUCCUGAUGAUUUCCUAUACAUGAGGAUCACCCAUGUAUGUGUAUUUUGUUUUUCGCUUUUUGGUCGUCAAUAAUA [Mod-Hoo-honey-2] (Eterna round: R97, puzzle: Sensor, turn-off variant 1)”, the “apparent KD of MS2 coat protein” value is 32.6 nM (input ligand: FMN 200 uM) and 33.4 nM (input ligand: none).

Take “GGUGAGCGAGGAUAUACAUGAGGAUCACCCAUGUGACGCUGUCCUUGGAAGAACCUCUGUAGAAGGCGCGGAAU [Veisrien] (Eterna round: R97, puzzle: Exclusion 3)”: the “apparent KD of MS2 coat protein” value runs as follows: (input ligand: FMN 200 uM) 23.5 nM; (input ligand: none) 162 nM.

Consider “GGUGCACAUGAGGAUCACCCAUGUCAGGAUAUGUUACCACGUUACGAUCGAGUGACGAGCAGAAGGGACUGCAU [Eternabot (L2) Solution 68] (Eterna round: R97, puzzle: Exclusion 1)”, for which the “apparent KD of MS2 coat protein” value came out at 39.4 nM (input ligand: FMN 200 uM) and 29.6 nM (input ligand: none).
